According to patent US20220289861A1:

Assays:
[1] = target: truncated human CD163 ECD SRCR domain 1-5 fragment with C-terminus histidine tag (human) (UniProt Q86VB7); assay: ratio of EC50 on huCD163 SRCR 1-5 to EC50 on huCD163 ECD
[2] = target: recombinant murine CD163 (R&D Systems, No. 7435-CD-050) (murine) (UniProt Q2VLH6); assay: ELISA on plate-coated recombinant murine CD163 (5 ug/mL)
Sequence of recombinant murine CD163 (R&D Systems, No. 7435-CD-050) (murine) (Q2VLH6 39-1045 limits assumed): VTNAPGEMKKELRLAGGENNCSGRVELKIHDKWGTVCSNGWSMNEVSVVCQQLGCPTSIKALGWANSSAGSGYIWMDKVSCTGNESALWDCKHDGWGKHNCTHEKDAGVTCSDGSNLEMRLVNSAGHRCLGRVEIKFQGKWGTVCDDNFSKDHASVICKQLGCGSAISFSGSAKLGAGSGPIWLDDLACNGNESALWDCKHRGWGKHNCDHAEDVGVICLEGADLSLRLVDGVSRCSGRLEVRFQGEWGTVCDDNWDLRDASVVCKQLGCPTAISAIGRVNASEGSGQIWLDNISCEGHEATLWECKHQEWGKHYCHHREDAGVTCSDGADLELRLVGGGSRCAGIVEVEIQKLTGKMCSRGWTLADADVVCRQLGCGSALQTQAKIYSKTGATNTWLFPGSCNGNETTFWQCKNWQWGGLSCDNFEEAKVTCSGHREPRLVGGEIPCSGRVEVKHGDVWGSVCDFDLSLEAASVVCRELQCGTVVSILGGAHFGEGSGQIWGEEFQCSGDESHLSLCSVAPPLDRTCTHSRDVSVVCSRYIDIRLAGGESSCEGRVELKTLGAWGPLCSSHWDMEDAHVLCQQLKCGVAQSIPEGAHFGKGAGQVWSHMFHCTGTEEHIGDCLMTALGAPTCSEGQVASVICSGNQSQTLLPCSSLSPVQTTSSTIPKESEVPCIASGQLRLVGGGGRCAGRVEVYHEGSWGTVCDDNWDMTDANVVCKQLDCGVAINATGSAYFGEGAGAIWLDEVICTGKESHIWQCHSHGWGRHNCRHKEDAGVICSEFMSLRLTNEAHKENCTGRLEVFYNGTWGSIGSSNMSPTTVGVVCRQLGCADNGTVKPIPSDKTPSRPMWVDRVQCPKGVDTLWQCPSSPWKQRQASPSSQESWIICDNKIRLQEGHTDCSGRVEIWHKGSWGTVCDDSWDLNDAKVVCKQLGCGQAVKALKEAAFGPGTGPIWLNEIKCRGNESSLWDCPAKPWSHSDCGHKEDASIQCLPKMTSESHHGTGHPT

Sequence of truncated human CD163 ECD SRCR domain 1-5 fragment with C-terminus histidine tag (human) (Q86VB7 42-578 limits assumed): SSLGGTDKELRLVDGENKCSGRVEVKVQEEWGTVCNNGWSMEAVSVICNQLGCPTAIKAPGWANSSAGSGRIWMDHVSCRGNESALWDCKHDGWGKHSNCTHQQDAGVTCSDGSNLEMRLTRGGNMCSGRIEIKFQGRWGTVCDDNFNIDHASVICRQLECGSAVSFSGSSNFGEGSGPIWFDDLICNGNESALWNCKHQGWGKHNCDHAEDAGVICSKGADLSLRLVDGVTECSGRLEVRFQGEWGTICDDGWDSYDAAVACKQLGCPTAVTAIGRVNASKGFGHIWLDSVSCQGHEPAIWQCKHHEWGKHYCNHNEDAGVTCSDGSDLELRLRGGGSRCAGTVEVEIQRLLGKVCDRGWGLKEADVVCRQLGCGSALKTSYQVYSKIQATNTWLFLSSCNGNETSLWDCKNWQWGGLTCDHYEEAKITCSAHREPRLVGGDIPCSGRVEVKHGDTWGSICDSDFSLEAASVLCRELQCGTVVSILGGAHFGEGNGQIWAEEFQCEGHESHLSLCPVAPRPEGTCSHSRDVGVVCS

Ratio SRCR 1-5/ECD [1] | EC50 (read off the curve) [2] | Substance
0.96 |  | EDHu-1 (antibody)
 | 30 pM | commercially available rat anti-muCD163 antibody (Thermo Fisher Scientific #14-1631-82)
1.17 |  | 215927 (antibody)
